Reference: paper PMC9181698 (International Journal of Molecular Sciences, 2022)

Molecular target: T1, SARS-CoV-2 spike protein RBD-Fc fusion protein, wild type (SARS-CoV-2, UniProt P0DTC2)
T1 construct: source: bought: Sino Biological
Assay: ELISA
Details: both partners purified

B1: LW25.5, individual helix 1 of LCB1 (peptide)
chain: DKEWILQKIYEIMRLLDEL
HELM: PEPTIDE1{[O=C1N[C@H]2[C@H](CS[C@H]2CCCCC(=O)[*:2])N1].[O=C(COCCOCCN[*:1])[*:2]].D.K.E.W.I.L.Q.K.I.Y.E.I.M.R.L.L.D.E.L.[am]}$$$$V2.0
SMILES: CC[C@H](C)[C@H](NC(=O)[C@H](Cc1c[nH]c2ccccc12)NC(=O)[C@H](CCC(=O)O)NC(=O)[C@H](CCCCN)NC(=O)[C@H](CC(=O)O)NC(=O)COCCOCCNC(=O)CCCC[C@@H]1SC[C@@H]2NC(=O)N[C@@H]21)C(=O)N[C@@H](CC(C)C)C(=O)N[C@@H](CCC(N)=O)C(=O)N[C@@H](CCCCN)C(=O)N[C@H](C(=O)N[C@@H](Cc1ccc(O)cc1)C(=O)N[C@@H](CCC(=O)O)C(=O)N[C@H](C(=O)N[C@@H](CCSC)C(=O)N[C@@H](CCCNC(=N)N)C(=O)N[C@@H](CC(C)C)C(=O)N[C@@H](CC(C)C)C(=O)N[C@@H](CC(=O)O)C(=O)N[C@@H](CCC(=O)O)C(=O)N[C@@H](CC(C)C)C(N)=O)[C@@H](C)CC)[C@@H](C)CC
notes: source: synthetic peptide (Fmoc/tBu solid-phase synthesis, preparative HPLC)
  IC50: > 200 nM

B2: LW25.6, individual helix 2 of LCB1 (peptide)
chain: GHAEASMRVSDLIYEFMKKG
HELM: PEPTIDE1{[O=C1N[C@H]2[C@H](CS[C@H]2CCCCC(=O)[*:2])N1].[O=C(COCCOCCN[*:1])[*:2]].G.H.A.E.A.S.M.R.V.S.D.L.I.Y.E.F.M.K.K.G.[am]}$$$$V2.0
SMILES: CC[C@H](C)[C@H](NC(=O)[C@H](CC(C)C)NC(=O)[C@H](CC(=O)O)NC(=O)[C@H](CO)NC(=O)[C@@H](NC(=O)[C@H](CCCNC(=N)N)NC(=O)[C@H](CCSC)NC(=O)[C@H](CO)NC(=O)[C@H](C)NC(=O)[C@H](CCC(=O)O)NC(=O)[C@H](C)NC(=O)[C@H](Cc1c[nH]cn1)NC(=O)CNC(=O)COCCOCCNC(=O)CCCC[C@@H]1SC[C@@H]2NC(=O)N[C@@H]21)C(C)C)C(=O)N[C@@H](Cc1ccc(O)cc1)C(=O)N[C@@H](CCC(=O)O)C(=O)N[C@@H](Cc1ccccc1)C(=O)N[C@@H](CCSC)C(=O)N[C@@H](CCCCN)C(=O)N[C@@H](CCCCN)C(=O)NCC(N)=O
notes: as for B1
  IC50: > 200 nM
